Consider seven compounds from US11260100B2, “Compositions targeting the interaction domain between p27Kip1 and Brk and methods of use thereof to inhibit p27 Y phosphorylation and cdk4 activity” (The Research Foundation for the State University of New York, priority 2014, dated 2022).

The test system of one assay is metastatic breast cancer. The following applies: metastatic breast cancer patients; cited from earlier work.
Assay [1] has as its target T1, Brk phosphorylation of p27 (Homo sapiens, UniProt P46527+Q13882).
T1 construct: were incubated with p27 before the addition of full length Brk and ATP; We incubated full length p27 with Src or Brk in the presence of ATP; purchased SignalChem (GST-PTK6/Brk) or Invitrogen (His-PTK6/Brk); host or cells: p27 made in house in E. coli
The assay is described as follows: In vitro Brk phosphorylation of p27 with competitor, pY88/pY74 immunoblot. The format is biochemical. As to conditions: increasing amounts of competitor. As for the experimental part:
(§1) FIGS. 3A-3D: SH3:PxxP interaction is required for p27 Y88 phosphorylation. (FIG. 3A) p27 and Brk were incubated with ATP and with increasing concentrations of the PxxP competitor, F58-106, followed by immunoblot analysis with pY88, pY74 and p27 antibodies. Lane 5: +equimolar amount of F58-106 and p27, lane 6: ++2.5×F58-106, lane 7: +++5×F58-106, lane 8: ++++10×F58-106. (FIG. 3B) GST-Brk, p27 and F58-106 were incubated, immunoprecipitated with GST antibodies, followed by immunblot analysis with GST or p27 antibodies. (FIG. 3C) Increasing amounts of GST-SH3, GST-SH2 or GST peptides were incubated with p27, followed by immunoblot analysis with pY88, pY74, p27 and GST antibodies. Lanes 3, 5, 7: 2.5× competitor, lanes 4, 6, […]: 5× competitor. (FIG. 3D) GST-SH3, GST-SH2 or GST peptides were incubated with p27 or ΔK1/K3, followed by metal agarose chromatography and immunoblot analysis with GST and p27 antibodies. Loading control: GST peptides added to the reaction which are not representative of association.
FIGS. 8A-8G: Alt Brk (SEQ ID NO: 17) acts as an endogenous inhibitor of Brk. (FIG. 8A) Flag tagged WT p27 was incubated with increasing amount of Flag tagged Alt-Brk (lanes 5-7) in presence of equal amount of Brk. Lane 5: +equimolar Brk and Alt, lane 6: ++2.5×Alt, lane 7: +++5×Alt Immunoblot analysis was performed using Flag, pY88 and pY74 antibodies. (FIG. 8B) Alt-Brk expressing cells were plated on day 0. They were induced (+Tet) or uninduced (−Tet) on day 1 and cells were harvested on days 2, 3 and 4 Immunoblot analysis was performed using N-terminal Brk, C-terminal Brk, Rb, Ser780 pRb, Flag or Actin antibodies. (FIG. 8C) p27 was immunoprecipitated from induced (+) or un-induced (−) Alt Brk expressing cells and immunoblot analysis was performed with p27, pY88 and pY74 antibodies. (FIG. 8D) Alt Brk or TRE3G vector alone cells were treated with + or −Tet and cell counts were used to monitor proliferation. […] (FIG. 8F) p27 was immunoprecipitated from MCF7 cells that were either contact arrested (G0), asynchronous (A), or serum starved with 1% and 0% serum for 48 h. Immunoblot analysis was performed to probe for p27, pY88 and pY74. IgG and Mv1Lu lysates served as a negative control. (FIG. 8G) Expression of WT or mutant p27s was induced by adding Tetracycline to the culture media. p27 was immunoprecipitated from cell lysates and probed for p27, pY88 and pY74 Immunoprecipitation with IgG served as a negative control.
It appeared that the SH3:PxxP interaction was required for Y88 phosphorylation. […]
To directly verify this, we expressed a Flag-tagged Alt-Brk in bacteria and purified this 15 Kd protein (FIG. 8A). When p27 was incubated with Brk, Y88 and Y74 phosphorylation was detected by immunoblot analysis (FIG. 8A, lane 3). […]

In a further assay the target is T2, GST-Brk (Homo sapiens, UniProt Q13882).
T2 construct: this K1-containing peptide was sufficient to associate with full length Brk; purchased SignalChem
Description: GST immunoprecipitation of GST-Brk with p27 and/or F58-106. It counts as binding. On the procedure: as §1
We then performed the converse reaction, and increasing amounts of individual recombinant, GST-tagged pieces of Brk (GST-SH2, GST-SH3) or GST peptides were incubated with p27 before the addition of full length Brk and ATP. The reactions were probed by immunoblot analysis with pY88 and pY74 antibodies (FIG. 3C).

Another assay addresses T3, WT p27 (Homo sapiens, UniProt P46527).
T3 construct: made in house; host or cells: E. coli
The assay is described as follows: Metal agarose chromatography of His-p27 with GST peptides. It counts as binding. The following applies: absence of ATP. As for the experimental part: as §1
(§2) We incubated the GST, GST-SH3, or GST-SH2 peptides with His-tagged versions of p27 and the ΔK1/K3 mutant, isolated complexes by metal agarose chromatography and performed immunoblot analysis with GST antibodies (FIG. 3D). […] However, this binding was independent of the PxxP K1 site (FIG. 3D, lane 3). […]

The target of the next assay is T4, ΔK1/K3 p27 (Homo sapiens, UniProt P46527, K189A/K190A/P188A/P191A/P91A/P92A/P94A/P95A).
T4 construct: made in house; host or cells: E. coli
The assay is described as follows: Metal agarose chromatography of His-ΔK1/K3 p27 with GST peptides. It counts as binding. As to conditions: absence of ATP. As for the experimental part: as §1, §2

Another assay deals with T5, Brk SH3 domain (Homo sapiens, UniProt Q13882).
T5 construct: made in house; host or cells: phage supernatants
T5 sequence (Q13882 8-72 limits assumed): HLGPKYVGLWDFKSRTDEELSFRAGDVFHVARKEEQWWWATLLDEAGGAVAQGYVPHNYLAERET
Description: Phage-ELISA of GST-PxxP peptides (K1, K2, K3) against SH3 phages. The format is binding. The following applies: GST-fusion PxxP peptides. An excerpt: (§3) FIGS. 1A-1C: Brk binds to p27 with high affinity in vitro. (FIG. 1A) p27 sequence highlighting the proline tracts of the three putative SH3 domain recruitment sites (PxxP): K1 (90-96), K2 (114-117) and K3 (188-195) (SEQ ID NO: 1). Phage-ELISA-analysis of SFK SH3 interactions with p27 (FIG. 1B) or p27's PxxP motifs (FIG. 1C). Data shown is the mean of three independent experiments±standard deviation after normalization and subtraction of the background binding to GST. (FIG. 1C) Recombinantly produced GST-K1, (amino acids 85-102 of SEQ ID NO: 1), −K2, (amino acids 108-123 of SEQ ID NO: 1), −K3 (amino acids 182-197 of SEQ ID NO: 1), or GST was immobilized in 96-well plates and analyzed for binding of the phages with the Brk-, Frk-, Yes-, or Abl-SH3 domain.
The following materials and methods are provided to facilitate the practice of the present invention. • Antibodies. Mouse Anti-p27(Kip1), BD Biosciences 610242. Cdk4 (DCS-35), p27 (N-20), C-terminal Brk (C-18), Brk (D-6), N-terminal Brk (N-20), c-Src (SC-18), Cyclin D1 (H 295), ARHGDIA (A-20), Santa Cruz Biotechnology. Anti-beta galactosidase antibody is from RND systems (af6464). Phosphotyrosine (P-Tyr-100), Cell Signaling Technology. Cdk4 (C-term, Cat. No. AP7520b), Abgent. GST (PRB-112C), Covance. Flag (F3165), Actin (A2066), Sigma Aldrich. Phospho Brk (Tyr342), EMD Millipore. pY74, Y88 and Y89 phospho-specific antibodies were generated by immunization of rabbits with phosphor-specific p27 peptides (Invitrogen). Negative- and positive-affinity chromatography with non-phosphorylated and phosphorylated peptides respectively, were performed to purify the antibodies. The antibodies are specific only for Y88,Y89, Y74 phosphorylation respectively (FIG. 2B, data not shown). • Enzymes. Gst-PTK6/Brk, GST-Src (SignalChem), His-Abl (New England Biolabs), His-PTK6/Brk, His-Src (Invitrogen) were used according to manufacturer's specifications. […] Phage supernatants were generated and binding of SH3-phages to recombinantly produced His-tagged-p27 or GST-PxxP-peptides was analyzed as described (28). • Construction of mutants and peptides. […]

Another assay addresses T6, full-length p27 (Homo sapiens, UniProt P46527).
T6 construct: made in house; host or cells: E. coli
Description: Phage-ELISA of SFK SH3 domain interactions with p27. As to conditions: phages carry many reiterated SH3 domains, which would enhance binding; read-out: Kd of interaction with full-length p27.
Text: as §3
The following materials and methods are provided to facilitate the practice of the present invention. • Antibodies. Mouse Anti-p27(Kip1), BD Biosciences 610242. Cdk4 (DCS-35), p27 (N-20), C-terminal Brk (C-18), Brk (D-6), N-terminal Brk (N-20), c-Src (SC-18), Cyclin D1 (H 295), ARHGDIA (A-20), Santa Cruz Biotechnology. Anti-beta galactosidase antibody is from RND systems (af6464). Phosphotyrosine (P-Tyr-100), Cell Signaling Technology. […] Phage supernatants were generated and binding of SH3-phages to recombinantly produced His-tagged-p27 or GST-PxxP-peptides was analyzed as described (28). • Construction of mutants and peptides. […]

Ends that are not written are not given here.

T1 sequence (Q13882 whole entry): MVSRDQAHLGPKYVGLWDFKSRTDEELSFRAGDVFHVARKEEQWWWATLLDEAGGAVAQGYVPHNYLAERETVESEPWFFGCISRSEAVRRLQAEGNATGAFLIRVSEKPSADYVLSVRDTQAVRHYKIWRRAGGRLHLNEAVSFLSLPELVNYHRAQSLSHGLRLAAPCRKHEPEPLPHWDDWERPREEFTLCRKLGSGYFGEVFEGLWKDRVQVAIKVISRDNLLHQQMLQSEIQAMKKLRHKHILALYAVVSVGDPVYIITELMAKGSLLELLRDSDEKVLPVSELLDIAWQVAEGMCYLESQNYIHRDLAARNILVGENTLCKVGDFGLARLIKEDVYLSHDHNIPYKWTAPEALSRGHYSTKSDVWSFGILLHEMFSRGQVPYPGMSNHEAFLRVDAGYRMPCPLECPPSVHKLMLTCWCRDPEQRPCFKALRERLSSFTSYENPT
T1 sequence (P46527 whole entry): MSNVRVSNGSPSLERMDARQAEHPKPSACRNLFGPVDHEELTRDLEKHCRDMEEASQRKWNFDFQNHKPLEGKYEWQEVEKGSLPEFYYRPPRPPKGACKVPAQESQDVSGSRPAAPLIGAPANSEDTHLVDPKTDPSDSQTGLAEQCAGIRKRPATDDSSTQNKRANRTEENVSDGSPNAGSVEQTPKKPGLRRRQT
T2 sequence (Q13882 whole entry): as the sequence (Q13882 whole entry) above
T4 sequence (P46527 whole entry P91A/P92A/P94A/P95A/P188A/K189A/K190A/P191A): as the sequence (P46527 whole entry) above, with P91A, P92A, P94A, P95A, P188A, K189A, K190A, P191A counted along it
T3 sequence (P46527 whole entry): as the sequence (P46527 whole entry) above
T6 sequence (P46527 whole entry): as above

Turning to `N#Cc1ccc(C(c2ccc(C#N)cc2)n2cncn2)cc1` [letrozole], the “median PFS” value in the assay on metastatic breast cancer is given as 10.2 months. For the compound “F58-106: Flagged tagged K1-site containing peptide, p27 residues 58 to 106 (RKWNFDFQNHKPLEGKYEWQEVEKGSLPEFYYRPPRPPKGACKVPAQES; also: Flag tag, site not given here)”, in assay [1], the “p27 Y74 phosphorylation by Brk” value was “only slightly reduced” and the “p27 Y88 phosphorylation by Brk” value was “decreased”. Also, the “association with GST-Brk” value with GST-Brk is “interacted”. As for “GST-SH2: recombinant GST-tagged SH2 piece of Brk [reference compound]”, in assay [1], the “p27 Y74 phosphorylation by Brk” value is “did not reduce” and the “p27 Y88 phosphorylation by Brk” value is “did not reduce”. For the same compound, the “association with WT p27” value in the assay with WT p27 is listed as “bound”. Also, in the assay with ΔK1/K3 p27, the “association with ΔK1/K3 p27” value was “bound”. Regarding “K1: GST-fusion peptide, amino acids 85-102 of p27 (SEQ ID NO: 1) (PEFYYRPPRPPKGACKVP; also: GST-fusion peptide; listed as Homo sapiens)”, in the assay with Brk SH3 domain, the “interaction with Brk SH3 domain” value is “weakly”. For the compound “K2: GST-fusion peptide, amino acids 108-123 of p27 (SEQ ID NO: 1) (DVSGSRPAAPLIGAPA; also: GST-fusion peptide; listed as Homo sapiens)”, the “interaction with Brk SH3 domain” value in the assay with Brk SH3 domain is “No SH3 domains interacted”. On the same count and under the same terms, the result for “K3: GST-fusion peptide, amino acids 182-197 of p27 (SEQ ID NO: 1) (GSVEQTPKKPGLRRRQ; also: GST-fusion peptide; listed as Homo sapiens)” reads “strongly”. For the compound “SH3 domain of Brk: Brk SH3 domain displayed on phages (SEQ ID NO: 2)”, the dissociation constant Kd in the assay with full-length p27 came to 250 nM.
